Substitutions are numbered along the chain they refer to. Where two headings read alike, the source gives them in different places. Values belong to the binder of their own block, whether it stands above or below them.
Tests used:
human CLDN18.2 [1] = target: human CLDN18.2 (human); test: cell-based or functional assay
human CLDN18.2 [2] = target: human CLDN18.2 (human); test: cell-based or functional assay; remark: listed apart in the source
human CLDN18.2 [3] = target: T1, human CLDN18.2 (human); test: imaging cytometry (% fluorescent cells), HEK293T-hCLDN18.2 cells
T1 construct: over-expressed on HEK293T or OCUM-1 cells by lentivirus; KATO-III and NUGC4 gastric cancer cells express it naturally; also called hCLDN18.2; hCLDNA18.2
Procedure: (§1) 10,000 cells were plated in 100 μL of DMEM containing 10% FBS per well in a flat-bottomed 96-well plate. After the cells adhered or were settled to the bottom of the wells overnight, the supernatant was removed on the next day. 3-Fold gradient dilution of antibody was performed by diluting 1/3 of the total volume (i.e., 100 μL) in 200 μL of DMEM. 100 μL of the diluted antibody (the supernatants of fused clones or subclones was used in the screening) was added to each well of the cell plate, 100 μL of DMEM was added to the corresponding negative control well, and incubation was carried out for 1 hour at room temperature. After removing the supernatant, 100 μL of secondary antibody (5 μg/mL, diluted in DMEM) was added to each well, and incubated at room temperature for 0.5 hours. The supernatant was removed after staining, followed by washing with PBS once. 100 μL of PBS was added to each well, and then reading was carried out on the cytometer.
(§2) A full-field scanning cytometer (Nexcelom, Celigo® Image Cytometer) was used to measure the readings of the experimental plate. During the measurement, high-speed scanning imaging of the cells in the well was simultaneously performed in the green fluorescent channel corresponding to the secondary antibody and in the bright field channel. The cells that bound the antibody were counted in the image obtained from the green fluorescent channel under the parameters set in accordance with the morphology and fluorescence intensity of the fluorescently labeled cells, and the adhered cells were counted in the image obtained from the bright field channel under the parameters set in accordance with the morphology of the cells. […] The data analysis was performed using GraphPad.

human CLDN18.2 [4] = target: T1, human CLDN18.2; test: cell-based or functional assay; remark: listed apart in the source
human CLDN18.2 [5] = target: T1, human CLDN18.2; test: imaging cytometry (% fluorescent cells), HEK293T-hCLDN18.2 cells; remark: listed apart in the source
Procedure: as §1, §2

human CLDN18.2 [6] = target: T1, human CLDN18.2; test: cell-based or functional assay; remark: listed apart in the source
human CLDN18.2 [7] = target: T1, human CLDN18.2; test: cell-based or functional assay; remark: listed apart in the source

CDC EC50, KATO-III target cells, human serum (human CLDN18.2 [1]): 0.33 µg/mL | ADCC EC50, KATO-III target cells, human PBMC effectors (human CLDN18.2 [2]): 0.0028 µg/mL | EC50 (human CLDN18.2 [3]): 0.051 µg/mL
B1: 7004-09hu09 (antibody, human IgG1, kappa, V domains shown)
VH: QVQLVQSGAEVKKPGASVKVSCKASGYTFTSYNMHWVRQAPGQGLEWMGTIYPGNGDTSYNQKFQGRVTMTRDKSTSTVYMELSSLRSEDTAVYFCARGGYYGNSLDYWGQGTLVTVSA
VL: DIVMTQSPDSLAVSLGERATINCKSSQSLLNSGNQKNYLAWYQQKPGQPPKLLIYWASTRESGVPDRFSGSGSGTDFTLTISSLQAEDVAVYYCQNAYYYPFTFGQGTKLEIKR
notes: humanized antibody of murine 44F7, human IgG1/kappa constant regions

CDC EC50, KATO-III target cells, human serum (human CLDN18.2 [1]): 0.27 µg/mL | ADCC EC50, KATO-III target cells, human PBMC effectors (human CLDN18.2 [2]): 0.0033 µg/mL | EC50 (human CLDN18.2 [3]): 0.047 µg/mL
B2: 7004-09hu10 (antibody, human IgG1, kappa, V domains shown)
VH: B1 VH with N33Y
VL: B1 VL with A40T
notes: as for B1

CDC EC50, KATO-III target cells, human serum (human CLDN18.2 [1]): 0.27 µg/mL | ADCC EC50, KATO-III target cells, human PBMC effectors (human CLDN18.2 [2]): 0.0061 µg/mL | EC50 (human CLDN18.2 [3]): 0.008 µg/mL
B3: 7004-09hu15 (antibody, human IgG1, kappa, V domains shown)
VH: B1 VH with N33Y
VL: B1 VL with L29V
notes: as for B1

Internalization percentage (%), HEK293T-hCLDN18.2 cells, flow cytometry, 10 µg/mL antibody (human CLDN18.2 [4]): -3.2% | EC50 (human CLDN18.2 [5]): 0.031 µg/mL | ADCC EC50, HEK293T-hCLDN18.2 target cells, human PBMC effectors (human CLDN18.2 [6]): 0.0126 µg/mL | CDC EC50, HEK293T-hCLDN18.2 target cells, human serum (human CLDN18.2 [7]): 1.93 µg/mL
B4: 37B1-chIgG1 (antibody, V domains shown)
VH: EVRLQQSGPELVKPGASVKMSCKASGYSFTDYNMHWVKQSHGKSPEWVGYINPNKGGTGYNQKFKGKATLTVNKSSSTANMELRSLTSEDSAVYYCARIWYGNSFAYWGQGTLVTVSA
VL: DVVMTQSPSSLTVTAGEKVTMSCKSSQSLLNSGNQKNYLTWYQQKPGQPPKLLIYWASTRESGVPDRFTGSGSGTDFTLTISSVQAEDLAVYFCQNDYFYPFTFGSGTKLEIKR
notes: human-mouse chimeric antibody, human IgG1/kappa constant regions

Internalization percentage (%), HEK293T-hCLDN18.2 cells, flow cytometry, 10 µg/mL antibody (human CLDN18.2 [4]): 2.5% | EC50 (human CLDN18.2 [5]): 0.069 µg/mL | ADCC EC50, HEK293T-hCLDN18.2 target cells, human PBMC effectors (human CLDN18.2 [6]): 0.0156 µg/mL | CDC EC50, HEK293T-hCLDN18.2 target cells, human serum (human CLDN18.2 [7]): 2.4 µg/mL
B5: 44A8-chIgG1 (antibody, V domains shown)
VH: EVRLQQSGPELVKPGASVKMSCKASGYTFTDYNMHWVKQSHGKSLEWIGYINPKNGGIRYNQKFTGKATLTVNKSSSTAYMELRSLTSEDSAVYYCARGGYYGNTLDNWGQGTSVTVSS
VL: B4 VL with V2I, V13L, R60S, V91I, F93Y, D97A, F102W, S106G
notes: as for B4

— US20210403552A1 (SHANGHAI GENBASE BIOTECHNOLOGY, published 2021)
